Substrate in data set [1]: CC(C)(O/N=C(\C(=O)N[C@@H]1C(=O)N2C(C(=O)[O-])=C(C[n+]3ccccc3)CS[C@H]12)c1csc(N)n1)C(=O)O
Conditions: Escherichia coli; DH5alpha CL1179.

Substrate in data set [2]: CC(C)(O/N=C(\C(=O)N[C@@H]1C(=O)N2C(C(=O)[O-])=C(C[n+]3ccccc3)CS[C@H]12)c1csc(N)n1)C(=O)O
The settings on record: Escherichia coli; TO799.

Substrate in data set [3]: CC(=O)OCC1=C(C(=O)O)N2C(=O)[C@@H](NC(=O)Cc3cccs3)[C@H]2SC1
In words: (§1) Activity of Escherichia coli DH5alpha beta-lactamase TEM-1 by microacidimetric method.

Substrate in data set [4]: CC(C)(O/N=C(\C(=O)N[C@@H]1C(=O)N2C(C(=O)[O-])=C(C[n+]3ccccc3)CS[C@H]12)c1csc(N)n1)C(=O)O
Described as §1.

Substrate in data set [5]: CC1(C)S[C@@H]2[C@H](NC(=O)Cc3ccccc3)C(=O)N2[C@H]1C(=O)O
The data set is described as §1.

Substrate in data set [6]: CC1(C)S[C@@H]2[C@H](NC(=O)[C@H](C(=O)O)c3ccsc3)C(=O)N2[C@H]1C(=O)O
The data set is described as §1.

Substrate in data set [7]: CC1(C)S[C@@H]2[C@H](NC(=O)[C@H](N)c3ccc(O)cc3)C(=O)N2[C@H]1C(=O)O
The data set is described as §1.

Substrate in data set [8]: CCN1CCN(C(=O)N[C@@H](C(=O)N[C@@H]2C(=O)N3[C@@H]2SC(C)(C)[C@@H]3C(=O)O)c2ccccc2)C(=O)C1=O
The description is as §1.

Substrate in data set [9]: CO/N=C(\C(=O)N[C@@H]1C(=O)N2C(C(=O)O)=C(COC(C)=O)CS[C@H]12)c1csc(N)n1
Described as §1.

Substrate in data set [10]: CC(=O)OCC1=C(C(=O)O)N2C(=O)[C@@H](NC(=O)Cc3cccs3)[C@H]2SC1
Description: (§2) Activity of Escherichia coli DH5alpha beta-lactamase TEM-158 by microacidimetric method.

Substrate in data set [11]: CC(C)(O/N=C(\C(=O)N[C@@H]1C(=O)N2C(C(=O)[O-])=C(C[n+]3ccccc3)CS[C@H]12)c1csc(N)n1)C(=O)O
The data set is described as §2.

Substrate in data set [12]: CC1(C)S[C@@H]2[C@H](NC(=O)Cc3ccccc3)C(=O)N2[C@H]1C(=O)O
Described as §2.

Substrate in data set [13]: CC1(C)S[C@@H]2[C@H](NC(=O)[C@H](C(=O)O)c3ccsc3)C(=O)N2[C@H]1C(=O)O
Described as §2.

Substrate in data set [14]: CC1(C)S[C@@H]2[C@H](NC(=O)[C@H](N)c3ccc(O)cc3)C(=O)N2[C@H]1C(=O)O
The description is as §2.

Substrate in data set [15]: CCN1CCN(C(=O)N[C@@H](C(=O)N[C@@H]2C(=O)N3[C@@H]2SC(C)(C)[C@@H]3C(=O)O)c2ccccc2)C(=O)C1=O
The data set is described as §2.

Changes are numbered by the printed parent chain.

B1: Beta lactamase TEM-152 (Escherichia coli), Q09Q13 (protein)
chain: MSIQHFRVALIPFFAAFCLPVFAHPETLVKVKDAEDQLGARVGYIELDLNSGKILESFRPEERFPMVSTFKVLLCGAVLSRVDAGQEQLGRRIHYSQNDLVEYSPVTEKHLTDGMTVRELCSAAITMSDNTAANLLLTTIGGPKELTAFLHNMGDHVTRLDHWEPELNEAIPNDERDTTMPAAMATTLRKLLTGELLTLASRQQLIDWMEADKVAGPLLRSALPAGWFIADKSGAGKRGSRGIIAALGPDGKPSRIVVIYTTGSQATMDERDRQIAEIGASLIKHW
One may read the kcat as the number of substrate molecules converted per active site and unit of time at saturation. For B1, the kcat in data set [1] turned out to be 40 s⁻¹.

B2: Beta-lactamase TEM-125 (Escherichia coli), Q6GWS8 (protein)
chain: B1 chain with F14L, V67L, H162S, W163R, K237E
B2: the kcat in data set [2] worked out at 3.7 s⁻¹.

B3: Beta-lactamase TEM (Escherichia coli), P62593 (protein)
chain: B1 chain with V67M, H162R, K237E, D272N
The Km is the substrate concentration at which the rate is half of its maximum. Turning to B3, the kcat was 165 s⁻¹ in data set [3]; under 0.1 s⁻¹ in [4]; 1500 s⁻¹ in data set [5]; 135 s⁻¹ in data set [6]; 1120 s⁻¹ in [7]; 1250 s⁻¹ in data set [8]. The kcat in data set [9] is under 0.1 s⁻¹. In addition, the Km in [5] is 34 µM; in [6] it was 36 µM; in data set [7], 15 µM; in data set [8] it was 55 µM.

B4: CMT-type beta lactamase (Escherichia coli), A5HJU3 (protein)
chain: B1 chain with V67L, H162S, K237E
Regarding B4, the Km is 170 µM in data set [10]; 38.1 µM in data set [12]; 143 µM in data set [13]; 24.8 µM in data set [14]; 46 µM in data set [15]. For the same protein, the kcat in data set [10] stood at 0.26 s⁻¹; in data set [11], 1.7 s⁻¹; in data set [12] it was 18.5 s⁻¹; in data set [13] it was 4.2 s⁻¹; in [14], 14.4 s⁻¹; in data set [15], 17.1 s⁻¹.
